Sequences and labels used below:
B1: TPR 5TU (parent)
chain: GGAUCUUCUCGAUCUAACAAAAAAGACAAAUCUGCCACAAAGCUUGAGAGCAUCUUCGGAUGCAGAGGCGGCAGCCUUCGGUGGCGCGAUAGCGCCAACGUUCUCAACUAUGACACGCAAAACGCGUGCUCCGUUGAAUGGAGUUUAUCAUG

Variants at the floor of the assay were thinned out.

This data set covers variants of B1. The experiment in a line: polymerase ribozyme fitness, log enrichment relative to wild type (log ratio); higher = more active; in vitro selection for triplet polymerase activity. The essentials: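 A heterodimeric triplet polymerase ribozyme had each of its subunits mutagenized by PCR into a library, which was transcribed. One round of in vitro selection, done in triplicate, annealed each library with a biotinylated primer, its partner subunit and triplets, then incubated it frozen at −7 °C before gel excision of extended constructs, streptavidin-bead capture and RT-PCR. Fitness is the logarithm of genotype enrichment relative to wild-type enrichment, based on Illumina sequencing of inputs and outputs and inverse-variance-weighted replicate averages. A base-2 logarithm is used, and genotypes were kept only with ≥10 input reads and ≥1 read per output.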
With C85G U109G U144C, the “polymerase ribozyme fitness (log ratio)” value is no more than -4.2.

In the case of C85U C96U A98G A150G, the “polymerase ribozyme fitness (log ratio)” value is -2.21.

As to C85U A142G, the “polymerase ribozyme fitness (log ratio)” value was -1.38.

Regarding G86A C149A, the “polymerase ribozyme fitness (log ratio)” value is no more than -4.2.

C85U C95U: the “polymerase ribozyme fitness (log ratio)” value is -1.72.

Consider C85U C87U, for which the “polymerase ribozyme fitness (log ratio)” value worked out at 0.308.

Turning to C85G C93U C116U U127G, the “polymerase ribozyme fitness (log ratio)” value is no more than -4.2.

Take C85U A98C G117C: the “polymerase ribozyme fitness (log ratio)” value is 0.631.

Regarding C85U U146G U148C, the “polymerase ribozyme fitness (log ratio)” value is -2.24.

Consider C85U A89G A106G G117A G126C G143C, for which the “polymerase ribozyme fitness (log ratio)” value is no more than -4.2.

Consider C85G C99U G112U C118U, for which the “polymerase ribozyme fitness (log ratio)” value is no more than -4.2.

On to G86A C103G U134A, for which the “polymerase ribozyme fitness (log ratio)” value is no more than -4.2.

Take G86A C116G A150C: the “polymerase ribozyme fitness (log ratio)” value is -3.93.

In the case of G86A A113C, the “polymerase ribozyme fitness (log ratio)” value is -3.53.

Regarding C85G C87U U145A, the “polymerase ribozyme fitness (log ratio)” value was -2.77.

On to C85U U146G, for which the “polymerase ribozyme fitness (log ratio)” value is -0.713.

For the variant C85U U146A, the “polymerase ribozyme fitness (log ratio)” value was -0.167.

As for C85U G152U, the “polymerase ribozyme fitness (log ratio)” value was -3.73.

As to C85U U90C, the “polymerase ribozyme fitness (log ratio)” value was -3.89.

For the variant C85G G92C A106C A120U A121G U134A, the “polymerase ribozyme fitness (log ratio)” value was no more than -4.2.

As for C85U A89U A110C A121U G136A U146C, the “polymerase ribozyme fitness (log ratio)” value was no more than -4.2.

Regarding C85U, the “polymerase ribozyme fitness (log ratio)” value was -0.513.

For C85G C123G U139A, the “polymerase ribozyme fitness (log ratio)” value is no more than -4.2.

Consider C85U C105U A106C U135C G141A, for which the “polymerase ribozyme fitness (log ratio)” value was -3.94.

C85U C116U G141A: the “polymerase ribozyme fitness (log ratio)” value is -2.95.

On to C85U C93G, for which the “polymerase ribozyme fitness (log ratio)” value is -3.83.

For the variant C85U A89G, the “polymerase ribozyme fitness (log ratio)” value was -2.67.

Regarding G86A U102G, the “polymerase ribozyme fitness (log ratio)” value was -4.05.

In the case of C85G U102G C129U A150C, the “polymerase ribozyme fitness (log ratio)” value is no more than -4.2.

As to C85U U127C U145A, the “polymerase ribozyme fitness (log ratio)” value was -3.58.

With C85G C116U, the “polymerase ribozyme fitness (log ratio)” value was -1.66.

For G86A G141U, the “polymerase ribozyme fitness (log ratio)” value was -1.07.

Turning to C85U U101A, the “polymerase ribozyme fitness (log ratio)” value is -0.791.

Turning to C85U U101G, the “polymerase ribozyme fitness (log ratio)” value is -1.15.

For the variant C85U G141U, the “polymerase ribozyme fitness (log ratio)” value was found to be 1.07.

Take C85U G141C: the “polymerase ribozyme fitness (log ratio)” value was -0.765.

As to G86A C105U, the “polymerase ribozyme fitness (log ratio)” value was -0.138.

As to C85U A121U C132A U134A, the “polymerase ribozyme fitness (log ratio)” value is -4.16.

Regarding C85U A91C U102C, the “polymerase ribozyme fitness (log ratio)” value is no more than -4.2.

Consider G86A A110U, for which the “polymerase ribozyme fitness (log ratio)” value is no more than -4.2.

C85G G94A C95G U135A: the “polymerase ribozyme fitness (log ratio)” value is -3.95.

For the variant C85U G136U G152C, the “polymerase ribozyme fitness (log ratio)” value is no more than -4.2.

As to G86A A122G, the “polymerase ribozyme fitness (log ratio)” value is -1.11.

For the variant G86A A89U C123U, the “polymerase ribozyme fitness (log ratio)” value is -2.1.

C85G G92U G136A G141A: the “polymerase ribozyme fitness (log ratio)” value is -3.06.

For the variant C85G C99G, the “polymerase ribozyme fitness (log ratio)” value was -4.1.

Take C85G U135C A138C: the “polymerase ribozyme fitness (log ratio)” value is no more than -4.2.

In the case of G86A C87G, the “polymerase ribozyme fitness (log ratio)” value is -3.97.

For C85U A89U C105G, the “polymerase ribozyme fitness (log ratio)” value was -1.55.

In the case of C85U A89U C105U, the “polymerase ribozyme fitness (log ratio)” value was 0.517.

Consider C85G C116U U144C, for which the “polymerase ribozyme fitness (log ratio)” value is -3.36.

Regarding C85U G100U A121C G124A C125G G136A A142G G152U, the “polymerase ribozyme fitness (log ratio)” value is no more than -4.2.

Turning to C85U C129U, the “polymerase ribozyme fitness (log ratio)” value was -0.359.

Turning to C85U A97U A115U, the “polymerase ribozyme fitness (log ratio)” value is -2.7.

Consider C85G C125U, for which the “polymerase ribozyme fitness (log ratio)” value was -3.35.

In the case of C85G U139C G143A, the “polymerase ribozyme fitness (log ratio)” value was no more than -4.2.

In the case of G86A G94C C132U G141C, the “polymerase ribozyme fitness (log ratio)” value was no more than -4.2.

In the case of G86A A89U C105U U134A, the “polymerase ribozyme fitness (log ratio)” value was -3.77.

Consider C85G C118A U146C, for which the “polymerase ribozyme fitness (log ratio)” value is -2.72.

G86A G143A: the “polymerase ribozyme fitness (log ratio)” value was -1.25.

With G86A G143C, the “polymerase ribozyme fitness (log ratio)” value is -2.14.

Regarding G86A G143U, the “polymerase ribozyme fitness (log ratio)” value is -3.07.

Consider C85G C149U, for which the “polymerase ribozyme fitness (log ratio)” value is -2.46.

Consider C85U C87U U144G, for which the “polymerase ribozyme fitness (log ratio)” value is 0.338.

Turning to C85G C95A, the “polymerase ribozyme fitness (log ratio)” value is -1.68.

For C85G G128C, the “polymerase ribozyme fitness (log ratio)” value was no more than -4.2.

As for C85U C87U C108U C114A, the “polymerase ribozyme fitness (log ratio)” value was no more than -4.2.

Consider G86A U90A, for which the “polymerase ribozyme fitness (log ratio)” value is -3.67.

Turning to C85U A98U G117A, the “polymerase ribozyme fitness (log ratio)” value was -0.373.

On to C85U G143A, for which the “polymerase ribozyme fitness (log ratio)” value is 0.273.

In the case of C85G U135A, the “polymerase ribozyme fitness (log ratio)” value is -3.38.

Turning to C85G U135C, the “polymerase ribozyme fitness (log ratio)” value was -3.66.

In the case of C85U C132U, the “polymerase ribozyme fitness (log ratio)” value was -0.776.

Take C85U A89U A119C: the “polymerase ribozyme fitness (log ratio)” value was -0.895.

Regarding G86A C99G, the “polymerase ribozyme fitness (log ratio)” value was -3.06.

C85U U134G: the “polymerase ribozyme fitness (log ratio)” value is -2.89.

For C85U U134A, the “polymerase ribozyme fitness (log ratio)” value is -3.04.

Consider C85G C96U C116A A137C, for which the “polymerase ribozyme fitness (log ratio)” value was no more than -4.2.

Consider C85U C95U G133A, for which the “polymerase ribozyme fitness (log ratio)” value was -4.

C85U G92U C125A G136C: the “polymerase ribozyme fitness (log ratio)” value is -3.55.

As to C85G C118U, the “polymerase ribozyme fitness (log ratio)” value is -3.37.

Consider C85U G126U U139A U144C, for which the “polymerase ribozyme fitness (log ratio)” value was -3.59.

Consider C85G G86A, for which the “polymerase ribozyme fitness (log ratio)” value is -3.83.
